{"source": "patent US6358505", "about": "(dated 2002)", "molecules": {"B1": {"name": "G-CSF receptor agonist expressed from pMON3499 (ligand)", "chain": "LLGHSLGIPWAPLSSCPSQALQLAGCLSQLHSGLFLYQGLLQALEGISPELGPTLDTLQLDVADFATTIWQQMEELGMAPALQPTQGAMPAFASAFQRRAGGVLVASHLQSFLEVSYRVLRHLAQPTPLGPASSLPQSFLLKSLEQVRKIQGDGAALQEKLCATYKLCHPEELV"}, "B2": {"name": "G-CSF receptor agonist expressed from pMON25182 (ligand)", "chain": "AMAPALQPTQGAMPAFASAFQRRAGGVLVASHLQSFLEVSYRVLRHLAQPTPLGPASSLPQSFLLKSLEQVRKIQGDGAALQEKLCATYKLCHPEELVLLGHSLGIPWAPLSSCPSQALQLAGCLSQLHSGLFLYQGLLQALEGISPELGPTLDTLQLDVADFATTIWQQMEELG"}, "B3": {"name": "G-CSF receptor agonist expressed from pMON25183 (ligand)", "chain": "ATQGAMPAFASAFQRRAGGVLVASHLQSFLEVSYRVLRHLAQPTPLGPASSLPQSFLLKSLEQVRKIQGDGAALQEKLCATYKLCHPEELVLLGHSLGIPWAPLSSCPSQALQLAGCLSQLHSGLFLYQGLLQALEGISPELGPTLDTLQLDVADFATTIWQQMEELGMAPALQP"}, "B4": {"name": "G-CSF receptor agonist expressed from pMON25184 (ligand)", "chain": "ASAFQRRAGGVLVASHLQSFLEVSYRVLRHLAQPTPLGPASSLPQSFLLKSLEQVRKIQGDGAALQEKLCATYKLCHPEELVLLGHSLGIPWAPLSSCPSQALQLAGCLSQLHSGLFLYQGLLQALEGISPELGPTLDTLQLDVADFATTIWQQMEELGMAPALQPTQGAMPAFA"}, "B5": {"name": "G-CSF receptor agonist expressed from pMON25186 (ligand)", "chain": "AMAPALQPTQGAMPAFASAFQRRAGGVLVASHLQSFLEVSYRVLRHLAQPSGGSGGSQSFLLKSLEQVRKIQGDGAALQEKATYKLCHPEELVLLGHSLGIPWAPLSSCPSQALQLAGCLSQLHSGLFLYQGLLQALEGISPELGPTLDTLQLDVADFATTIWQQMEELG"}, "B6": {"name": "G-CSF receptor agonist expressed from pMON25187 (ligand)", "chain": "ATQGAMPAFASAFQRRAGGVLVASHLQSFLEVSYRVLRHLAQPSGGSGGSQSFLLKSLEQVRKIQGDGAALQEKLCATYKLCHPEELVLLGHSLGIPWAPLSSCPSQALQLAGCLSQLHSGLFLYQGLLQALEGISPELGPTLDTLQLDVADFATTIWQQMEELGMAPALQP"}, "B7": {"name": "G-CSF receptor agonist expressed from pMON25188 (ligand)", "chain": "ASAFQRRAGGVLVASHLQSFLEVSYRVLRHLAQPSGGSGGSQSFLLKSLEQVRKIQGDGAALQEKLCATYKLCHPEELVLLGHSLGIPWAPLSSCPSQALQLAGCLSQLHSGLFLYQGLLQALEGISPELGPTLDTLQLDVADFATTIWQQMEELGMAPALQPTQGAMPAFA"}, "B8": {"name": "G-CSF receptor agonist expressed from pMON3450 (ligand)", "chain": "AYKLCHPEELVLLGHSLGIPWAPLSSCPSQALQLAGCLSQLHSGLFLYQGLLQALEGISPELGPTLDTLQLDVADFATTIWQQMEELGMAPALQPTQGAMPAFASAFQRRAGGVLVASHLQSFLEVSYRVLRHLAQPTPLGPASSLPQSFLLKSLEQVRKIQGDGAALQEKLCAT"}, "B9": {"name": "G-CSF receptor agonist expressed from pMON3455 (ligand)", "chain": "AYKLCHPEELVLLGHSLGIPWAPLSSCPSQALQLAGCLSQLHSGLFLYQGLLQALEGISPELGPTLDTLQLDVADFATTIWQQMEELGMAPALQPTQGAMPAFASAFQRRAGGVLVASHLQSFLEVSYRVLRHLAQPSGGSGGSQSFLLKSLEQVRKIQGDGAALQEKLCAT"}}, "data": [{"target": "T1, human G-CSF receptor (human, UniProt Q99062 25-836)", "T1 sequence (looked up)": "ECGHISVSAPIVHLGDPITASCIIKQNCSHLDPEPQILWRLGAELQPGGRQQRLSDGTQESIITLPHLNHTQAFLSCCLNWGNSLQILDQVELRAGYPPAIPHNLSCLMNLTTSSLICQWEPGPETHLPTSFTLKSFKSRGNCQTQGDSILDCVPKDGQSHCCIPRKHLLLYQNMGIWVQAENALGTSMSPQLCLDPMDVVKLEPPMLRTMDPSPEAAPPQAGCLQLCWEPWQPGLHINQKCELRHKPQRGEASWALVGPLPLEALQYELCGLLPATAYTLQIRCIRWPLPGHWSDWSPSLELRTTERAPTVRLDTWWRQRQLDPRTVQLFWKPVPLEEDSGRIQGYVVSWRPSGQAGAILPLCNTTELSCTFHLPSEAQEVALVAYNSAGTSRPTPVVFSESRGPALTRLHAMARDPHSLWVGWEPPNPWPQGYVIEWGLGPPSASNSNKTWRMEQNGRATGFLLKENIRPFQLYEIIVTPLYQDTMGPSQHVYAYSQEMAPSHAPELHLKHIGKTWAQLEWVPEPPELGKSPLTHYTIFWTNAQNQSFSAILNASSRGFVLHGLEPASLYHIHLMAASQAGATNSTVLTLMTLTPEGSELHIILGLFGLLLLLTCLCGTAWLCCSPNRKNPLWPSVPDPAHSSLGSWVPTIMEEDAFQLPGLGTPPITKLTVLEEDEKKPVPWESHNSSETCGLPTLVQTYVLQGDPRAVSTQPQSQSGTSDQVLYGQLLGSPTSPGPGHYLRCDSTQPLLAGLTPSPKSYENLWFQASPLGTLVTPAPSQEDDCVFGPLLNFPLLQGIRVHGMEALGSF", "assay": "cell-based or functional assay", "units": {"EC50 (pM), Baf/3-G-CSF cell proliferation assay": "pM"}, "values": [{"molecule": "native G-CSF (from UniProt P09919 31-204) (ligand)", "EC50 (pM), Baf/3-G-CSF cell proliferation assay": 60}, {"molecule": "B1", "EC50 (pM), Baf/3-G-CSF cell proliferation assay": 137}, {"molecule": "B2", "EC50 (pM), Baf/3-G-CSF cell proliferation assay": 38}, {"molecule": "B3", "EC50 (pM), Baf/3-G-CSF cell proliferation assay": 58}, {"molecule": "B4", "EC50 (pM), Baf/3-G-CSF cell proliferation assay": 70}, {"molecule": "B5", "EC50 (pM), Baf/3-G-CSF cell proliferation assay": 92}, {"molecule": "B6", "EC50 (pM), Baf/3-G-CSF cell proliferation assay": 83}, {"molecule": "B7", "EC50 (pM), Baf/3-G-CSF cell proliferation assay": 41}, {"molecule": "B8", "EC50 (pM), Baf/3-G-CSF cell proliferation assay": 121}, {"molecule": "B9", "EC50 (pM), Baf/3-G-CSF cell proliferation assay": 102}]}]}
